# “And” between values parts separate entries of the source, which are not always exact repeats. Identical values can stand only once.
# Experiments:
# Experiment in all cases: MTT cytotoxicity assay, 48 h, alone and in combination (IC50 and Combination Index)
# Assay type in all cases: cell-based
# [1] = tested on: T24 cell line
# Description: The cell were kept in contact with the recombinant lectin of SEQ ID NO: 1 and the chemotherapy agent for 48 h and the cytotoxic effect (percentage cytotoxicity) was measured. The cytotoxic effect was determined by well-known colorimetric MTT assay (Mossman, T. 1983 Rapid colorimetric assay for cellular growth and survival: application to proliferation and cytotoxicity assays Journal of Immunological Methods, volume 65, pages 55-63) for assessing cell metabolic activity.
# Based on percentage cytotoxicity data, IC50 values were determined using the software GraphPad Prism version 4.01.
# (§1) Combination Index (CI) values were determined for each drug concentration combination. The CI values were calculated based on the IC50 values using the formula as given in below.
# A study was performed to determine the effect of the concentration of the recombinant lectin represented by SEQ ID NO: 1 on the IC50 of Cisplatin for cytotoxicity in T24 cells. Conversely the effect of the concentration of Cisplatin on the IC50 of the recombinant lectin represented by SEQ ID NO: 1.
# Similarly another study was performed for Gemcitabine in combination with the recombinant lectin of SEQ ID NO: 1.
# This was performed using the same techniques as in Example 1-1.
# In a further study, T24 cells were treated with Cisplatin (1 μM-500 μM) in combination with SEQ ID NO: 1(2.5 μg/mL-80 μg/mL) for 48 h. Similarly another set of cells were treated with Gemcitabine (1 μM-300 μM) in combination with SEQ ID NO: 1 (2.5 μg/mL-80 μg/mL). Combination Index values were determined for each drug combination and resultant antagonistic, additive or synergistic effect was determined, as described in Example 1-2.
# [2] = tested on: PANC-1 cell line
# Description: The cytotoxic effect on each combination was determined by MTT assay.
# as §1
# [3] = tested on: KB cell line
# Description: A study was performed to determine the effect of the concentration of the recombinant lectin represented by SEQ ID NO: 1 on the IC50 of5-FU for cytotoxicity in KB cells.
# Similarly another study was performed for Cisplatin in combination with the recombinant lectin of SEQ ID NO: 1.
# Similarly another set of cells were treated with Cisplatin(0.1 μM to 1.5 μM)in combination with SEQ ID NO: 1(5.0 μg/mL-90 μg/mL).
# [4] = in combination with 5-FU, paired with 5-FU conc. of the same table row
molecule,measurement,setting,value
"SEQ ID NO: 1: recombinant lectin protein, variant of the S. rolfsii lectin amino acid sequence (reported as Rec-2 in WO 2010/095143) (protein) TYKITVRVYQTNPDAFFHPVEKTVWKYANGGTWTITDDQHVLTMGGSGTSGTLRFHADNGESFTATFGVHNYKRWCDIVTNLAADETGMVINQQYYSQKNREEARERQLSNYQVKNAKGRNFQIVYTEAEGNDLHANLIIG",IC50 of SEQ ID NO: 1,[1]; Cisplatin 0 μM,11.470 µg/mL
same,IC50 of SEQ ID NO: 1,[1]; Cisplatin 1 μM,11.460 µg/mL
same,IC50 of SEQ ID NO: 1,[1]; Cisplatin 10 μM,2.375 µg/mL
same,IC50 of SEQ ID NO: 1,[1]; Cisplatin 25 μM,1.062 µg/mL
same,IC50 of SEQ ID NO: 1,[1]; Cisplatin 50 μM,1.081 µg/mL
same,IC50 of SEQ ID NO: 1,[1]; Cisplatin 100 μM,0.944 µg/mL
same,IC50 of SEQ ID NO: 1,[1]; Cisplatin 500 μM,0.716 µg/mL
same,IC50 of SEQ ID NO: 1,[1]; Gemcitabine 0 μM,10.350 µg/mL
same,IC50 of SEQ ID NO: 1,[1]; Gemcitabine 1 μM,2.242 µg/mL
same,IC50 of SEQ ID NO: 1,[1]; Gemcitabine 10 μM,0.892 µg/mL
same,IC50 of SEQ ID NO: 1,[1]; Gemcitabine 50 μM,0.626 µg/mL
same,IC50 of SEQ ID NO: 1,[1]; Gemcitabine 100 μM,0.155 µg/mL
same,IC50 of SEQ ID NO: 1,[1]; Gemcitabine 200 μM,0.149 µg/mL
same,IC50 of SEQ ID NO: 1,[1]; Gemcitabine 300 μM,0.029 µg/mL
same,Conc. of SEQ ID NO: 1 showing synergistic effect,"[1]; in combination with Cisplatin, paired with Cisplatin conc. of the same table row",5 to 80 µg/mL
same,Conc. of SEQ ID NO: 1 showing synergistic effect,"[1]; in combination with Gemcitabine, paired with Gemcitabine conc. of the same table row",2.5 to 80 µg/mL
same,IC50 of SEQ ID NO: 1,[2]; 5-FU 0 μM,24.630 µg/mL
same,IC50 of SEQ ID NO: 1,[2]; 5-FU 0.1 μM,686.900 µg/mL
same,IC50 of SEQ ID NO: 1,[2]; 5-FU 1 μM,22.490 µg/mL
same,IC50 of SEQ ID NO: 1,[2]; 5-FU 10 μM,6.842 µg/mL
same,IC50 of SEQ ID NO: 1,[2]; 5-FU 50 μM,1.690 µg/mL
same,IC50 of SEQ ID NO: 1,[2]; 5-FU 100 μM,1.070 µg/mL
same,IC50 of SEQ ID NO: 1,[2]; 5-FU […] μM,0.098 µg/mL
same,IC50 of SEQ ID NO: 1,[2]; Gemcitabine 0 μM,25.060 µg/mL
same,IC50 of SEQ ID NO: 1,[2]; Gemcitabine 0.01 μM,55.490 µg/mL
same,IC50 of SEQ ID NO: 1,[2]; Gemcitabine 0.1 μM,19.450 µg/mL
same,IC50 of SEQ ID NO: 1,[2]; Gemcitabine 1 μM,14.130 µg/mL
same,IC50 of SEQ ID NO: 1,[2]; Gemcitabine 5 μM,12.230 µg/mL
same,IC50 of SEQ ID NO: 1,[2]; Gemcitabine 25 μM,2.044 µg/mL
same,IC50 of SEQ ID NO: 1,[2]; Gemcitabine 50 μM,0.917 µg/mL
same,Conc. of SEQ ID NO: 1 showing synergistic effect,[2]; [4],5 µg/mL and 10 to 80 µg/mL
same,IC50 of SEQ ID NO: 1,[3]; 5-FU 0 μM,17.3800 µg/mL
same,IC50 of SEQ ID NO: 1,[3]; 5-FU 0.01 μM,0.5800 µg/mL
same,IC50 of SEQ ID NO: 1,[3]; 5-FU 0.1 μM,0.9080 µg/mL
same,IC50 of SEQ ID NO: 1,[3]; 5-FU 0.5 μM,0.1141 µg/mL
same,IC50 of SEQ ID NO: 1,[3]; 5-FU 1 μM,0.0555 µg/mL
same,IC50 of SEQ ID NO: 1,[3]; 5-FU 5 μM,0.0871 µg/mL
same,IC50 of SEQ ID NO: 1,[3]; 5-FU […],0.5010 µg/mL
same,IC50 of SEQ ID NO: 1,[3]; Cisplatin 0 μM,38.110 µg/mL
same,IC50 of SEQ ID NO: 1,[3]; Cisplatin 0.1 μM,21.190 µg/mL
same,IC50 of SEQ ID NO: 1,[3]; Cisplatin 0.5 μM,2.694 µg/mL
same,IC50 of SEQ ID NO: 1,[3]; Cisplatin 0.75 μM,0.597 µg/mL
same,IC50 of SEQ ID NO: 1,[3]; Cisplatin 1.0 μM,0.316 µg/mL
same,IC50 of SEQ ID NO: 1,[3]; Cisplatin 1.5 μM,0.303 µg/mL
same,IC50 of SEQ ID NO: 1,[3]; Cisplatin […],11.240 µg/mL
same,Conc. of SEQ ID NO: 1 showing synergistic effect,[3]; [4],5 to 90 µg/mL

# Reference: patent US20220257704A1, “COMBINATION OF CHEMOTHERAPY WITH RECOMBINANT S. ROLFSII LECTIN” (Unichem Laboratories Ltd, priority 2018, published 2022)
